Data reported in patent US10889844B2, “Methods of degrading or hydrolyzing a polysaccharide” (Novozymes A/S, priority 2010, dated 2021).
Entries after “also recorded” stand apart in the source; their conditions may differ.

Assays:
[1] = system: N-terminal CBM33 domain of CelS2; test: Metal reactivation of EDTA treated N-terminal CBM33 domain of CelS2 (HPAEC, FIG. 31); assay type: biochemical, Streptomyces coelicolor A3(2); settings: for reactivation of EDTA treated enzyme: 10 μM metal ion, 20 μM EDTA, 1.7 mM reduced glutathione, pH 6.6
Description: […]; Mg^2+, Fe^3+, Zn^2+, Co^2+, Ca^2+, Cu^2+). […].
To identify which is the preferred metal for CelS2, the activity of the N-terminal CBM33 domain of CelS2 was inhibited by EDTA and different metals were tested to reactivate the protein.

[2] = target: CBP21 (Serratia marcescens, UniProt P9WEM3); test: Reactions under metal chelating conditions: re-activation of metal-free CBP21; assay type: biochemical
Description: Solid lines indicate reactions with metal-free CBP21; dashed lines indicate reactions without CBP21. Half way through the reaction (indicated by the arrow) MgCl2 (final concentration 25 mM), ZnCl2 (25 mM) or buffer was added to one of two (parallel) reaction mixtures. Squares, MgCl2 added; circles, ZnCl2 added; triangles, buffer added.
Divalent cations were removed by chelation through dialysis of a 10 mg/mL CBP21 solution in a buffer containing 20 mM Tris-HCl and 5 mM EDTA. The protein solution was present in a Slide-A-Lyzer cassette (Pierce) with 10 kDa MW cut-off dialysis membrane. […] For the re-activation experiment, the divalent cations were added to the appropriate reaction solutions immediately after the third sampling (90 minutes).

[3] = Time course of filter paper cellulose degradation by […] with CelS2 (FIG. 25); assay type: biochemical
Description: In reactions where no CelS2 was present, 40 μg/ml purified BSA was added in order to maintain an identical protein load. […] Data are mean+/−SD (N=3); error bars indicate SD.

[4] = Filter paper degradation by HjCel7A with CelS2 over time (FIG. 26); assay type: biochemical; settings: no CelS2 present
Description: By far the major products of these reactions are cellooligosaccharides released by the cellulases (whose activity is boosted by CelS2). In the case of HjCel7A, the main product is cellobiose and formation of this product is shown. RG, indicates the presence of a reductant, in this case reduced glutathione. […] The reactions were run at 50° C.

[5] = Filter paper cellulose degradation by […] with E7 (FIG. 28); assay type: biochemical
Description: 1 μM of the N-terminal CBM33 domain of CelS2 was incubated with 10 mg/ml AVICEL® in the presence of 0.8 mM of one of the reductants, or in the absence of any reductant. Reactions were run in 50 mM succinate buffer pH 5.5, 1 mM MgCl2, at 50° C. and 900 rpm (vertical agitation) for 20 hours. […] (glucose and cellobiose reported as [Glc]) released after incubation of 0.08 μl/ml […]™ (CC) in the presence or absence of 1 μM E7 and 2 mM reduced glutathione (RG) as external electron donor with 2 mg/ml filter paper cellulose. Reactions were incubated in 20 mM sodium acetate buffer pH 5.5, 1 mM MgCl2, at 50° C. and 900 rpm (horizontal agitation) for up to 50 hours.

[6] = CBP21 reaction speed and degree of substrate oxidation (UHPLC of oxidized chitooligosaccharides); assay type: biochemical
Description: FIGS. 16A and 16B show the speed and extent of oxidative cleavage by CBP21 activity. […] After five hours, approximately 4.9% of the total sugars (theoretical number based on chitin concentration) are oxidized*. […] The degree of oxidation was determined by rapid conversion of the treated chitin with a large dose of a chitinase cocktail followed by UHPLC detection of oxidized dimers (filled diamonds) and trimers (filled triangles), as described in the Materials and Methods section. The linear part of the reaction represents an oxidation rate of approximately 1 per minute**. Maximum levels are reached after 2-3 hours and represent a degree of oxidation of 7.6% of the total sugars (theoretical number based on chitin concentration)***. Data in both panels are mean+/−SD (N=3); error bars (not visible for every point) indicate SD.
*The end concentrations of oxidized trimer and tetramer are 53 and 55 μM, respectively, giving rise to a total of 108 μM GlcNAcA. The molar concentration of GlcNAc in the solution is 2217 μM. Thus the degree of oxidation is 108/2217; in other words 4.9% of the sugars are GlcNAcA. **The rates calculated for oxidized dimer and oxidized trimer are 0.68 and 0.60 μM/min. […] The molar concentration of GlcNAc in the solution is 2217 μM. Thus the degree of oxidation is 168/2217; in other words 7.6% of the sugars are GlcNAcA.
Fractions were dried under vaccum (SpeedyVac), and resuspended in 50 μL MilliQ water. Purity was verified by MALDI-TOF MS. Isolated GlcNAc3GlcNAcA or GlcNAc4GlcNAcA were each incubated for 2 hours at 37° C. with 7.0 μM of a pure recombinant family 19 chitinase (ChiG from Streptomyces coelicolor (Hoell et al., 2006, FEBS J. 273: 4889)) resulting in production of equimolar amounts of GlcNAc2 and GlcNAcGlcNAcA or GlcNAc2GlcNAcA, respectively. The amount of GlcNAc2 resulting from the hydrolysis was estimated using a predetermined standard curve. Response factors for the GlcNAcA containing oligosaccharides were obtained by determining GlcNAcGlcNAcA/GlcNAc2 and GlcNAc2GlcNAcA/GlcNAc2 peak area ratios and found to be 0.71 and 0.81, respectively. A response factor for GlcNAc3GlcNAcA was approximated to be 0.88 by extrapolation of the two experimentally determined response factors. Using the response factors determined, GlcNAcGlcNAcA and GlcNAc2GlcNAcA peaks could be quantified using GlcNAc2 for calibration. […] Additionally, the reactions contained 0.45 mg/mL beta-chitin, 1.0 μM CBP21 and 0.5 ChiC μM in 20 mM Tris-HCl pH 8.0.
The reactions were incubated at 37° C. in an Eppendorf Thermo mixer with shaking at 1000 rpm, and sampled at 30, 60, 120 and 300 minutes. All samples were mixed 1:1 with 100% acetonitrile in order to stop the reaction and soluble products were analyzed by UHPLC. Separation of the oxidized oligosaccharides and GlcNAc2 was achieved using a column temperature of 30° C. and a flow of 0.4 mL/min, with a gradient starting at 80% ACN (A):20% 15 mM Tris-HCl pH 8.0 (B) for 4.5 minutes, followed by an 11 minute gradient to 63% A: 37% B which was held for 3.5 minutes. Column reconditioning was achieved by a two minute gradient to initial conditions and subsequent running at initial conditions for 5 minutes. Eluted oligosaccharides were monitored by recording absorption at 205 nm. Chromatograms were recorded, integrated and analysed using the ChemStation rev. B.04.02 chromatography software (Agilent Technologies).
In order to approximate the rate of the CBP21 oxidohydrolytic activity, reactions containing 0.45 mg/mL beta-chitin, 1.0 μM CBP21 and 1.0 mM reduced glutathione in 20 mM Tris-HCl pH 8.0 were incubated at 37° C. and sampled at 10, 15, 30,45, 60 and 300 minutes. […]

[7] = Chitin solubilization by CBP21: soluble oxidized products (MALDI-TOF MS, UHPLC); assay type: biochemical; settings: 2.0 mg/mL beta-chitin, 1.0 mM ascorbic acid, 20 mM Tris pH 8.0, 37° C.
Description: Two microliter of a 9 mg/mL mixture of 2,5-dihydroxybenzoic acid (DHB) in 30% acetonitrile was applied to a MTP 384 target plate ground steel TF (Bruker Daltonics). One microliter sample was then mixed into the DHB droplet and dried under a stream of air. The samples were analyzed with an Ultraflex MALDI-TOF/TOF instrument (Bruker Daltonics GmbH, Bremen, Germany) with a Nitrogen 337 nm laser beam. The instrument was operated in positive acquisition mode and controlled by the FlexControl 3.3 software package. All spectra were obtained using the reflectron mode with an acceleration voltage of 25 kV, a reflector voltage of 26, and pulsed ion extraction of 40 ns in the positive ion mode. The acquisition range used was from m/z 0 to 7000. […] Post-source decay (PSD) spectra using the Bruker Daltonics LIFT system were recorded at 8 kV precursor ion acceleration voltage and fragment acceleration (LIFT voltage 19 kV). […]
UHPLC was run on an Agilent 1290 Infinity UHPLC system equipped with diode array detector, set up with a Waters Acquity UPLC BEH amide column (2.1×150 mm with a 2.1×30 mm pre column both having a column material particle size of 1.7 μm) using 5 μL sample injections. […] Eluted oligosaccharides were monitored by recording absorption at 205 nm. Chromatograms were recorded, integrated and analysed using the ChemStation rev. […]

[8] = 0.1 mg/mL beta-chitin, 0.5 μM ChiC, 1.0 mM ascorbic acid, pH 8.0
Description: CBP21-like and GH61 proteins contain two highly conserved histidines (H28 and H114 in CBP21), one of which is the N-terminal histidine of the secreted mature protein.
Isocratic HPLC was run on a Dionex Ultimate 3000 HPLC system set up with a 4.6×250 mm Amide-80 column (Tosoh Bioscience, Montgomeryville, Pa., USA) with an Amide-80 guard column. The mobile phase consisted of 70% acetonitrile: 30% MilliQ H2O and the flow rate was 0.7 ml/min. Eluted oligosaccharides were monitored by recording absorption at 190 nm. Chromatograms were recorded, integrated and analysed using the Chromeleon 6.8 chromatography software (Dionex). […] A standard solution containing 0.10 mM (GlcNAc)2 was analyzed at regular intervals during the sample series, and the resulting average values (displaying standard deviations of less than 3%) were used for calibration.
For the sake of experimental simplicity and throughput, the degradation of chitin in reactions with ChiC and CBP21 was quantitatively assessed by measuring concentration of the dominant product, (GlcNAc)2, only.
The reaction was incubated at 37° C. and sampled at regular time intervals. Chitin degradation was measured by determining the concentration of (GlcNAc)2 by HPLC.

[9] = Filter paper degradation by […] with CelS2 or E7 (FIG. 20), sugars by HPLC; assay type: biochemical
Description: Reactions were run in 50 mM Bis-tris/HCl pH 6.5, 1 mM MgCl2, at 50° C. and 900 rpm (horizontal agitation). Control reactions containing the cellulosic substrate suspended in the same buffer as used for the enzyme assays gave no detectable signal for either glucose or cellobiose.
The mobile phase consisted of 5 mM sulfuric acid and the flow rate used was 1.0 ml/min. Eluted glucose and cellobiose were monitored by recording refractive index. Quantification was obtained by running glucose and cellobiose standards.
Assays performed to evaluate the function of E7 and CelS2 were set up using a variety of cellulosic substrates (AVICEL®, filter paper and steam exploded wood chips from poplar), at either pH 5.5 (20 mM sodium acetate buffer), 6.5 (20 mM Bis-Tris buffer) or 8.0 (20 mM Tris buffer) in reaction mixtures containing 1.0 mM MgCl2.

[10] = Soluble products released from AVICEL by CBM33 proteins (MALDI-TOF MS, HPAEC); assay type: biochemical; settings: with external electron donor (ascorbic acid or reduced glutathione)
Description: The main peaks are annotated with molecular weight and degree of polymerization (DP).
The DP of the oxidized cellooligosaccharides is indicated by n, where n=3 (the shortest labelled oxidized cellooligosaccharide has a DP of three (=n)). […] Peak annotation was performed by comparing the chromatogram with the chromatogram obtained for a chemically prepared mixture of oxidized cellooligosaccharides with lengths varying from DP1 to DP10.
The main peaks are annotated with molecular weight and degree of polymerization (DP). All annotated peaks are Na adducts of native cellooligosaccharides, oxidized cellooligosaccharides (denoted “ox”) or the sodium salts of oxidized cellooligosaccharides.
Products were analyzed after 20 hours of incubation in 20 mM ammonium acetate buffer pH 5.0, 1 mM MgCl2 at 50° C. and 900 rpm (vertical agitation).
Separation of native and oxidized cellooligosaccharides was achieved using a Dionex Bio-LC equipped with a CarboPack PA1, a column temperature of 30° C. and a flow of 0.25 ml/min, with starting conditions, i.e., 0.1 M NaOH. A stepwise linear gradient with increasing amounts of sodium acetate was applied, going from 0.1 M NaOH and 0.1 M sodium acetate in 10 minutes, then to 0.1 M NaOH and 0.3 M sodium acetate for 25 minutes then increasing to 0.1 M NaOH and 1.0 M sodium acetate at 30 minutes which was kept for 10 minutes. Column reconditioning was achieved by a one minute gradient to initial conditions and subsequent running at initial conditions for 14 minutes. Eluted oligosaccharides were monitored by PAD detection. Chromatograms were recorded and analysed using Chromeleon 7.0 Peak identification was achieved by a procedure including the following steps: oxidized cellooligosaccharides were separated using a Dionex Ultimate 3000 UHPLC system carrying a Hypercarb 150×2.1 mm column (Thermo Scientific) running a gradient of water/0.1% TFA and acetonitrile/0.1% TFA (from 20 to 80% acetonitrile) according to the method developed by Westphal et al., 2010, Journal of Chromatography A 1217: 689-695. Eluted peaks were manually fractioned, freeze-dried, re-dissolved in MilliQ water and identified using MALDI-TOF MS. Pure oxidized cellooligosaccharides with known identity were then analyzed using the HPEAC method described above in order to establish the identity of the oxidized cellooligosaccharides generated by CelS2 and E7.

[11] = 1.0 μM CBP21 alone, 0.45 mg/mL beta-chitin

[Cu+2] [Cu^2+]
reactivation of EDTA treated enzyme [1]: reactivated the enzyme
reactivation of EDTA treated enzyme ([1]; listed as copper): able to reactivate CelS2
effect on CBM33 action at higher metal concentration ([1]; concentrations in the 1 mM range, not shown): inhibits CBM33 action

[Cl-].[Cl-].[Mg+2] [MgCl2]
re-activation of metal-free CBP21 [2]: Re-activation of metal-free CBP21 was achieved

[Cl-].[Cl-].[Zn+2] [ZnCl2]
re-activation of metal-free CBP21 [2]: Re-activation of metal-free CBP21 was achieved

N[C@@H](CCC(=O)N[C@@H](CS)C(=O)NCC(=O)O)C(=O)O [reduced glutathione, reference compound]
effect of reductant in reactions with only CC ([3]; 0.5 mM reduced glutathione): no effect in reactions with only CC
effect of reductant on Cel7A alone [4]: essentially identical
effect of reductant in reactions with only CC ([5]; 2 mM reduced glutathione): no effect in reactions with only CC

B1: CBP21: chitin-binding protein of Serratia marcescens, single-domain CBM33 protein (SEQ ID NO: 4) (protein, listed as Serratia marescens)
chain: MNKTSRTLLSLGLLSAAMFGVSQQANAHGYVESPASRAYQCKLQLNTQCGSVQYEPQSVEGLKGFPQAGPADGHIASADKSTFFELDQQTPTRWNKLNLKTGPNSFTWKLTARHSTTSWRYFITKPNWDASQPLTRASFDLTPFCQFNDGGAIPAAQVTHQCNIPADRSGSHVILAVWDIADTANAFYQAIDVNLSK
rate calculated for oxidized dimer [6, 11]: 0.68 µM/min
rate calculated for oxidized trimer [6, 11]: 0.60 µM/min
rate of oxidized products generated (dimer + trimer) [6, 11]: 1.28 µM/min
end concentration of oxidized tetramer ([6]; CBP21 + ChiC, five hours): 55 µM
end concentration of oxidized trimer ([6]; CBP21 + ChiC, five hours): 53 µM
total GlcNAcA ([6]; CBP21 + ChiC, five hours): 108 µM
oxidized dimer produced at maximum levels ([6]; CBP21 alone): 93 µM
oxidized trimer produced at maximum levels ([6]; CBP21 alone): 75 µM
time at which maximum levels of oxidized sugars are reached ([6]; CBP21 alone): 2 to 3 h
total GlcNAcA at maximum levels ([6]; CBP21 alone): 168 µM
production of soluble oxidized oligosaccharides from beta-chitin [7]: soluble products are dominated by even numbered short oligosaccharides with acidic reducing ends
effect on CELLUCLAST (CC) production of soluble glucose over time ([3]; 10 mg/ml filter paper, 0.8 μg/ml CC, pH 5.5): did not affect CC efficiency
potentiating effect on chitinase (ChiC) efficiency [8]: promotes chitin degradation by ChiC considerably better in the presence of ascorbic acid

B2: E7: single domain CBM33 from Thermobifida fusca (SEQ ID NO: 6) (protein, listed as Thermobifida fusca)
chain: MHRYSRTGKHRWTVRALAVLFTALLGLTQWTAPASAHGSVINPATRNYGCWLRWGHDHLNPNMQYEDPMCWQAWQDNPNAMWNWNGLYRDWVGGNHRAALPDGQLCSGGLTEGGRYRSMDAVGPWKTTDVNNTFTIHLYDQASHGADYFLVYVTKQGFDPTTQPLTWDSLELVHQTGSYPPAQNIQFTVHAPNRSGRHVVFTIWKASHMDQTYYLCSDVNFV
increase of glucose yield versus CELLUCLAST only ([9]; no external electron donor, 24 hours): ~3.0 fold
increase of glucose yield versus CELLUCLAST only ([9]; no external electron donor, 120 hours): ~3.5 fold
increase of glucose yield versus CELLUCLAST only ([9]; with external electron donor (1 mM reduced glutathione), 24 hours): 3.5 fold
increase of glucose yield versus CELLUCLAST only ([9]; with external electron donor (1 mM reduced glutathione), 120 hours): ~4.5 fold
release of soluble native/oxidized cellooligosaccharides from AVICEL [10]: soluble oligomeric products were observed
effect on CELLUCLAST activity ([5]; 1 μM E7, 0.08 μl/ml CC, 2 mg/ml filter paper, pH 5.5): acts in synergy with CELLUCLAST™; also recorded: prolongs cellulase activity over time
Glc or Glc2 released without cellulases ([5]; E7 in absence of cellulases): did not yield detectable amounts of Glc or Glc2

B3: CBP21^H114A: H114A mutant variant of CBP21 (protein, UniProt P9WEM3 28-197, looked up, variant H114A)
AA10 family lytic …: HGYVESPASRAYQCKLQLNTQCGSVQYEPQSVEGLKGFPQAGPADGHIASADKSTFFELDQQTPTRWNKLNLKTGPNSFTWKLTARASTTSWRYFITKPNWDASQPLTRASFDLTPFCQFNDGGAIPAAQVTHQCNIPADRSGSHVILAVWDIADTANAFYQAIDVNLSK
production of soluble oxidized oligosaccharides from beta-chitin [7]: did not lead to production of soluble oxidized oligosaccharides
potentiating effect on chitinase (ChiC) efficiency [8]: unable to boost chitinase activity
